Measurements from PMC9036094, “Antigen-derived peptides engage the ER stress sensor IRE1α to curb dendritic cell cross-presentation” (The Journal of Cell Biology, 2022).

System: IRE1α in TAP1 KO BMDCs
Test: IRE1α activation in TAP1-disrupted BMDCs (immunoblot)
Type: cell-based, mouse
Conditions: CRISPR/Cas9 TAP1; ovalbumin 500 μg/ml, 4 h
Description: Figure 1. Antigen pulsing of BMDCs activates IRE1α. (A) BMDCs were pulsed with ovalbumin (starting at 62.5 μg/ml and sequentially doubled) and analyzed by immunoblot (IB) for the indicated markers. (B) BMDCs were pulsed with ovalbumin (starting at 500 μg/ml and sequentially halved) or […] (1 μM), or stimulated with tunicamycin (1 μg/ml) or poly-I:C (25 μg/ml) for 4 h, and analyzed by IB. (C) BMDCs were pulsed with ovalbumin (500 μg/ml) for indicated time points and analyzed by IB. (D) BMDCs were pulsed for 4 h with ovalbumin or lysates derived from the indicated cell lines (500 μg/ml protein) and analyzed by IB. […] (F) Upon removal from bone marrow, total bone marrow cells were transfected with non-targeting control (NTC) or TAP1-targeting gRNAs, along with CRISPR/Cas9 delivery constructs. Cells were then subjected to standard BMDC-differentiation protocol, pulsed with ovalbumin (500 μg/ml) for 4 h, and analyzed by IB. All IB images are representative of at least two similar experiments, and molecular weights represent kD. Source data are available for this figure: SourceData F1.
Cells were lysed in PBS solution supplemented with 1X radioimmunoprecipitation assay buffer (Millipore) and 2X Halt protease-phosphatase inhibitor cocktail (Thermo Fisher Scientific). […]

B1: ovalbumin: classical protein antigen ovalbumin (Sigma-Aldrich) (protein)
chain: MGSIGAASMEFCFDVFKELKVHHANENIFYCPIAIMSALAMVYLGAKDSTRTQINKVVRFDKLPGFGDSIEAQCGTSVNVHSSLRDILNQITKPNDVYSFSLASRLYAEERYPILPEYLQCVKELYRGGLEPINFQTAADQARELINSWVESQTNGIIRNVLQPSSVDSQTAMVLVNAIVFKGLWEKAFKDEDTQAMPFRVTEQESKPVQMMYQIGLFRVASMASEKMKILELPFASGTMSMLVLLPDEVSGLEQLESIINFEKLTEWTSSNVMEERKIKVYLPRMKMEEKYNLTSVLMAMGITDVFSSSANLSGISSAESLKISQAVHAAHAEINEAGREVVGSAEAGVDAASVSEEFRADHPFLFCIKHIATNAVLFFGRCVSP
IRE1α stimulation upon TAP1 disruption: prevented IRE1α stimulation
